Experiments:
[1] = High throughput electrophysiology in HEK293T cells, acetylcholine; type: cell-based
Procedure: To confirm the EC50s determined by plate reader as well as develop a better understanding of maximum current flow, the engineered receptors were subjected to high throughput electrophysiology system, as described below. For HEK293T studies, cDNAs encoding ion channels were cloned into pcDNA3.1 using standard recombination techniques. HEK293T cells from Clontech (Lenti-X™ 293T Cell Line) were cultured in DMEM supplemented with 10% FBS and 1% Pen/Strep to 40-50% confluence using standard cell culture protocols, transfected with ion channel plasmids at a concentration of 18 μg per 15 cm dish using Fugene 6, and grown for an additional 24 hours. Cells were then assayed on a electrophysiological system (IonFluxHT and/or Mercury, Fluxion Biosciences) in which dose-response relationships may be assessed through a microfluidics-based platform for establishing whole cell configurations. […] Data were then analyzed off-line using custom Python scripts to convert data to .csv format, re-plot traces, and apply QC measurements to reject unstable recordings (i.e. thresholding based on access resistance and/or standard deviation in baseline, as well as artifact rejection). Peak currents were then calculated and population data were fit using a 4-parameter logistic equation as described by the Hill Equation. […]

[2] = YFP quench plate reader assay, response to TC-5619; type: cell-based; settings: LX293T YFP reporter cells
Outline: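 Anion-flux assay: channel opening admits iodide, quenching a co-expressed YFP reporter in LX293T cells transfected with engineered receptor mutants. Ligands were applied at several doses from 2× solutions in NaI-substituted ECS.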

B1: Y115D, L131Q in SEQ ID NO: 33: CR-11 (Chemogenic receptor-11): SEQ ID NO: 33 with substitutions Y115D and L131Q (protein)
chain: MRCSPGGVWLALAASLLHVSLQGEFQRKLYKELVKNYNPLERPVANDSQPLTVYFSLSLLQIMDVDEKNQVLTTNIWLQMSWTDHYLQWNVSEYPGVKTVRFPDGQIWKPDILLDNSADERFDATFHTNVQVNSSGHCQYLPPGIFKSSCPMDLKNFPMDVQTCKLKFGSWSYGGWSLDLQMQEADISGYIPNGEWDLVGIPGKRSERFYECCKEPYPDVTFTVTMRRRMGYYLIQMYIPSLLIVILSWISFWINMDAAPARVGLGITTVLTMTTQSSGSRASLPKVSYVKAIDIWMAVCLLFVFSALLEYAAVNFVSRQHKELLRFRRKRRHHKSPMLNLFQEDEAGEGRFNFSAYGMGPACLQAKDGISVKGANNSNTTNPPPAPSKSPEEMRKLFIQRAKKIDKISRIGFPMAFLIFNMFYWIIYKIVRREDVHNQ
modifications: synthetic sequence of chimeric LGIC
[1]
  fold reduced potency to acetylcholine compared to wild type receptor: over 500 fold
[2]; 1 nM TC-5619
  percent quench of YFP fluorescence, 1 nM brd: 0.92%
[2]; 3 nM TC-5619
  percent quench of YFP fluorescence, 3 nM brd: −4.65%
[2]; 10 nM TC-5619
  percent quench of YFP fluorescence, 10 nM brd: 0.38%
[2]; 30 nM TC-5619
  percent quench of YFP fluorescence, 30 nM brd: 8.96%
[2]; 100 nM TC-5619
  percent quench of YFP fluorescence, 100 nM brd: 12.18%
[2]; 300 nM TC-5619
  percent quench of YFP fluorescence, 300 nM brd: −0.3%
[2]; 1 uM TC-5619
  percent quench of YFP fluorescence, 1 uM brd: 45.47%
